Biological target: the molecule itself
Assay: SEC; Superdex 200 HR 10/30 in PBS; 450 µg/100 µL protein loaded; 0.5 mL/min; UV 280 nm; markers albumin (66.4 kDa) and α-lactalbumin (14.2 kDa); dimer in rapid equilibrium with monomer

| Protein | binding result |
| --- | --- |
| wild-type βB2-crystallin (natural protein, human, human beta-crystallin B2 (CRBB2 cDNA from a human cDNA library in pGEX-4t-1); Residues left by the vector after the thrombin cut are not described; also called WT βB2-crystallin; Beta-crystallin B2; source: E. coli BL21 (DE3), purified (glutathione-agarose, GST cut off with thrombin)) ASDHQTQAGKPQSLNPKIIIFEQENFQGHSHELNGPCPNLKETGVEKAGSVLVQAGPWVGYEQANCKGEQFVFEKGEYPRWDSWTSSRRTDSLSSLRPIKVDSQEHKIILYENPNFTGKKMEIIDDDVPSFHAHGYQEKVSSVRVQSGTWVGYQYPGYRGLQYLLEKGDYKDSSDFGAPHPQVQSVRRIRDMQWHQRGAFHPSN | binds |
| S175G/H181Q mutant βB2-crystallin (natural protein, human, human beta-crystallin B2 (CRBB2 cDNA in pGEX-4t-1) with the two changes found in cataract lenses, made by site-directed mutagenesis; Residues left by the vector after the thrombin cut are not described; also called S175G/H181Q βB2-crystallin; CRBB2 S175G/H181Q; source: E. coli BL21 (DE3), purified (glutathione-agarose, GST cut off with thrombin)) ASDHQTQAGKPQSLNPKIIIFEQENFQGHSHELNGPCPNLKETGVEKAGSVLVQAGPWVGYEQANCKGEQFVFEKGEYPRWDSWTSSRRTDSLSSLRPIKVDSQEHKIILYENPNFTGKKMEIIDDDVPSFHAHGYQEKVSSVRVQSGTWVGYQYPGYRGLQYLLEKGDYKDSGDFGAPQPQVQSVRRIRDMQWHQRGAFHPSN | binds |

— article PMC7555777, “Cataract-Associated New Mutants S175G/H181Q of βΒ2-Crystallin and P24S/S31G of γD-Crystallin Are Involved in Protein Aggregation by Structural Changes” (International Journal of Molecular Sciences, 2020)
